Results: the supplement of paper PMC12636428

Each sequence was assayed on Saccharomyces cerevisiae (assay: transcriptional activation domain activity (GFP:mCherry ratio, weighted mean of sorted bins, harmonized to initial dataset scale) (arbitrary fluorescence ratio units); higher = stronger transcriptional activation). Settings: beta-estradiol 1 µM; induction time 4 h.
How it was run: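 The listed activation activity is a read-weighted mean of bin median fluorescence, averaged across barcodes and linearly mapped onto the initial dataset scale. Barcoded tiles, fused to an estradiol-inducible synthetic transcription factor, were integrated at URA3 in yeast diploids bearing a GFP reporter. Cells were held 4 hours at 30 °C in SC with 1 uM beta-estradiol, sorted into 8 GFP:mCherry bins, and sequenced, and tiles with fewer than 50 reads were excluded.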

Sequence | transcriptional activation domain activity
PPLSSPFLCFPLCFPLPPLPLFPPSPLFPLSSPPSLFPFPPLPLFNPFLPSLC | 29800
EAKKEGEHGAAPAGEHGAAPAAGGHGAEAKKEGEHGAAPAAGGHGAAPAAGGH | 21300
CPELYQTHLQITGIITIDTYFSFNDYDAWVQLRDVLDLWLGRAWVFNVVIWKY | 61500
LEMLSYGAGVHHAINILFTDGIFWVWYYDRQGILQSKGVSIFKDLPRFLLLLF | 52200
MMGLRELHAASREFAMLFWREPRLDLALFLLLFLFFFVLFLFFCLFFFFCLVF | 15100
VRNNSENASHNNETGPIETELAQTISNEFWTAYNLGWEELMSQPDYKYLFDTQ | 117000
LCLERLFPPLMREIFCELGIASQVFQRIVFTAIYRRICGTGPHLAHLEAKALE | 30100
FWVWMMTSPAFPLKLFIPLFHLTILLIPFTSQFFTPALPITSWLICFFSSKFI | 49200
VQGTTHGRILIQAGKEIWTQELLLPYVYFILTLNPTIHTWERIKKITGYVFRA | 64200
FFRRALNFLFDIALVPMIVCSSYAIFEVPSNVFLKRLRPSLWLSLLMLLWGIM | 69000
AHSKKKTCDVCKYPYSFTKVYAQDMPARLPVFLLLRRLAQQGALAMLFAIRAV | 73300
SAKSLRLTVDEVKMLHRPALWYLIVGLVDTVAAARLRYFSFILHRPPLRQTLS | 47800
LGVSAGAGLYPLQDKKREEEEDGVRGFVREGLGDLSCFIGSSVPLTAKKVLEA | 75700
YGADDFFFPPEGCDNNMLYPQTATSWNVLPPQAMQPAPTYVGRPYTPNYRSTP | 71900
RWGGILNTHLCLLSTLVLCCTMLRFCINVIWTDTFVNWEMGWRTVCPWLLILL | 44600
LHLMLQKLCFAATLRIATLPDKHPLHPFVKRVYRYLFLKSHRAPRHNLFEAFQ | 55000
WYHYLPLCGTIFLILLPQPSWLWILVDFHLQTLHRPGLFIIHLLVSYTLIFMI | 38500
MYPFLFFLSFLLFSSLTFLFSLLSFEFKFFFTFSSSFFFFCLTLCFFCQSFFF | 36400
MIPPIHSPSFLQSYICFMLILPLPLMSIIVFHPLYFFWLFLSFLLLDYYLLLL | 23300
TSSPQKGAEKEEAAEAEPEKEKEAEAEAPASPQKRITPMKRGRGRPKRGGAAV | 27500
AKLALILVLFEVYVKWFKLEKLYGRSDFLLVESLHYQYFCILCLCVVEFVIWH | 45300

Sequence | transcriptional activation domain activity
VKEGGKDLVQLPKSWVEIDGEILVRAVLLLLHPGATLYGPVPMKIARNWPFAS | 60700
APPSSKPSPPPTSAASPAAPRAASPRPRAASSAGCRPRRGATRCCSRARASRS | 39400
WIVALAIIVSDYYGVVKGGVAYGLLASSNTSMAVFIFVWHLGGIWMITMLACM | 65100
GVEWWNVTSPEDSTYDPASLPLDVWDPLLPHDTGFSEIDITQCFFDPFFMPFL | 160000
GLFASCWQRFAQAYRPCIGLTRIFVLCLLEVVLWLKGLEILFWFFLWCWCTTT | 50200
EKDKGEPADGAAAPVVKRKRGRPPNKDRNKPPPAPAPAPPPAGASASTPASRL | 33400
LIVVTLSWDVAVIITFLKHRITLRRLKMQSFLSLSFLFKMLIICIFRFFIGVC | 88200
MELSFFSVSSDGDLFFLLLFLIRGVLEKYFFDWYFDLPLWVFVCFFLFVFLTL | 54600
SFLSLFWLLCLGRFPIITKLFLGLYAVFYYVSRYKIGICFVVSIRWIWKSGNR | 45600
QGIEPLLPPKWGMLVGEARDLLVLFGALGEQERWNFWTTGCSYMTAMVLLTAN | 53000
WLSHSQKKHCELCKTPFRFTKLYAPNMPKALPTHVFLSHVAKYILRNLLVWLR | 81200
QQLRIKIDSWSYQYGVDEVIRNRNRNLLIQMYMLLPPARFWLYMKRVRIMLLN | 66500
YLPYIVFPLTPQLSGPLCELYPSRGNLYDIFLHSILIMMQLPFILSVPFWLLF | 45500
SIILLCLPAAYFLFNIFSVGLLSLGFSHRLIPGIPRLRRYIFVPGVFLYIFAR | 54300
WHIRCVLLLVAFLHICYQVSYCACGLILVCLNFIFVRQPGGLEMLLTLKTAFY | 57800
DDEADGKRRRVQRACDSCRKKKCDVRARVYLCGCSKTPRSASQLLRRARGAHG | 42500
EEDSKVSVDVDRPAKRGRGRPPKPKDPNAPPPKPKSGRGRGRPPKAKPVEVAG | 39800
CFAMVQQIFAKLLIMFEPRLDIPLLKFYTLLYRSVYYAICRRQQLYQEDMIAA | 57700
MGTLLFVFMYYGWAFFLDYFIWCFVVSLCFWYKVCLAVLLLAFDVYCHLWCMI | 60200
MLHGSGAVFGSGFLSLVSLVLWLISYYCCTWTWKGIFILSICFFNTCIYIECI | 49800
EAPAPKKARGRPKKAAVKEDDAGSEEEAPAPKKAKGRLPKAVLKEEAESEAEA | 12900

Sequence | transcriptional activation domain activity
GWNTHRAQTYTQLAKHLQSHGFHCKQYLGWLCHNIVAIEVYWMMIHLKRILPL | 56300
KLWKKPIIVVMAAMPIIMDGVGNLLIPYLHSFVLHSLLFCHKKVAFLMLLLIF | 59100
RVHMLLCICLIATFVGVTVDLALEILFRLSQFSESPRFSPTGSRTLILTLPLF | 45300
ELENQSSLYYLPIHEETPFFIDLIPNGFYLETKRSADNLFGLFTDRAIENRDP | 83800
ICGMWLRGSFTFLSTVKDPHVLLRTMIKRDPELGFLWVGAFITGCHDRALREG | 71200
MPWGGWGYIFDVTRPFFFCFISCLFLFYICLLGFLVGFFCFSFFFDLFIFFMT | 24600
SWFDIDEENGDVISRLEWYHLVQMSLVHATILIWWTTGKVLININVSMAVRCG | 54100
VSTCLIKFLALIIEDLHHYFDPFQLKLIGVLVTWYEGAFAKSLFPGELISSEA | 52400
YLKELTRCAKLPYSTRAMKNLNNVAITCACTLLVSVPHFNFRGDLLKIIVAKV | 39500
IVKGTDAQQLAQIVVANLFCAILMRQDYVINAFFNFFCSVPTSWPLAIRRVCA | 53100
ILLEVLGKVRGDHTPKRQETSVQGIRRRFRDDLAFLCEYDKGGIACTAIGIEE | 12500
PAPKKAPAKPRGRKPKPTADSDNQEVEAEAKPKSARGKKRTVAEKAAEEGAQP | < 6570
WLPFPESLGSSYRMPGIEPYVDFVMGRILAKKLPELLDSCQILMLRWKCLCFI | 63200
MYELIGQGVSFFCCYFACVCFALHFCFGPYFGLWLWHCIFKTFFFLLVFFPNY | 61200
EGRRASRRKARGKSGADTPGTSEDEGVGGTSKSKPRKKRKLERKSKDAGKFKS | 27600
MLYRVYLDIFFFLYCLFVLGAFQDTRRFLFKFWAFPLLKVWQVVTIHLTCTQY | 61800
RYLRHIKNIVFVLVLLNYWSKLYNTVLIGGPVRAVHDFKTYLIRIVFRQLRRL | 47300
MFLYISLIFTLYYSTFPPPPPHPTSYLAIFLFLKLPWLFFSFSTSFSFTFFFW | 58400
FPPPFPPPFPPPFLSSFPPPVPLPLTFPLPPFPFQFPFPFPHPLTFPLPFPFP | 17600
